Consider one substance from US20030170785A1.

The target in this assay is CaV1.2 (α1C) L-type calcium channel subunit. Kind of assay: cell-based or functional assay.

On to calcium channel β3 subunit, for which the Ca^2+ influx (fluorescence change after depolarization with 50 mM KCl) in transfected HEK 293 cells was determined as 3 fold.
